Assay results: the supplement of paper PMC6379048

Legend:
Assay in all cases: Kd (EC50 corrected by depletion factor)
[1] = target: IGF2BP1 (UniProt Q9NZI8)
In short: (§1)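 To obtain EC50, data were fitted with a four-parameter log-logistic model; Kd was then EC50 multiplied by a protein-dependent depletion factor. Beforehand, free RNA oligos (0 nM to 30 μM) were pre-incubated with HEK293-FT lysate (2.5 mg protein/well) for 1 h at 4°C. The lysate then spent 30 min at 4°C with the same 5′-amino-C6 oligos coupled to NHS-Sepharose beads, and bound proteins were quantified by label-free LC-MS/MS, normalised to the control.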

[2] = target: IGF2BP2 (UniProt Q9Y6M1)
In short: as §1

[3] = target: MRPL21 (UniProt Q7Z2W9)
In short: as §1

[4] = target: MRPL13 (UniProt Q9BYD1)
In short: as §1

[5] = target: RPS3 (UniProt P23396)
In short: as §1

[6] = target: RPSA (UniProt P08865)
In short: as §1

[7] = target: T1, NONO (UniProt Q15233)
T1 sequence: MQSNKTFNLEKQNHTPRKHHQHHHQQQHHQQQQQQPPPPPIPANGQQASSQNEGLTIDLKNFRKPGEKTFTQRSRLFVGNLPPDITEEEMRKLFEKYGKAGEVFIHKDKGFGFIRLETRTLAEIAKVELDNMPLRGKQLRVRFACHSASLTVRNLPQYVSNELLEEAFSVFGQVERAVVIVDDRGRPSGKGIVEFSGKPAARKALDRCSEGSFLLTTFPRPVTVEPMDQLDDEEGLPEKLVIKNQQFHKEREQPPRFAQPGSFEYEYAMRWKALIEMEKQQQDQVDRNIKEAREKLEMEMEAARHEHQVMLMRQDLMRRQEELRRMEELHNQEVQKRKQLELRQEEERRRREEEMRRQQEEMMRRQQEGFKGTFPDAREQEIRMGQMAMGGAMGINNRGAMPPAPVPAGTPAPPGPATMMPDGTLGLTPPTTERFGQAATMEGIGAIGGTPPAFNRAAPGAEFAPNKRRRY
In short: as §1

[8] = target: SF3B6 (UniProt Q9Y3B4)
In short: as §1

[9] = target: T2, TIAL1 (UniProt Q01085)
T2 sequence: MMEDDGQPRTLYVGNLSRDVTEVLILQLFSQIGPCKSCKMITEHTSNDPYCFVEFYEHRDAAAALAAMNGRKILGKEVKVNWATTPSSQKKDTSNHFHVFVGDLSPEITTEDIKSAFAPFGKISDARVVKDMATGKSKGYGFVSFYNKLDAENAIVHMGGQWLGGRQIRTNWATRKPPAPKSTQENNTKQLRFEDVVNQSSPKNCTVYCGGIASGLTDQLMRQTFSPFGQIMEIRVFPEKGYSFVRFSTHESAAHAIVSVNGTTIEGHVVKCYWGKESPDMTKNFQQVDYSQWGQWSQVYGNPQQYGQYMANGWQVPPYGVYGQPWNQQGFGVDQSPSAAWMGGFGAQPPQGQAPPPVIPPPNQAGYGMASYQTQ
In short: as §1

[10] = target: T3, SF3B5 (UniProt Q9BWJ5)
T3 sequence: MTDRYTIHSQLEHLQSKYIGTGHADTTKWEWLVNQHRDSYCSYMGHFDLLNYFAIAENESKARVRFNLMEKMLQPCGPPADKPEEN
In short: as §1

[11] = target: RPL7 (UniProt P18124)
In short: as §1

[12] = target: DAP3 (UniProt P51398)
In short: as §1

[13] = target: MRPS25 (UniProt P82663)
In short: as §1

[14] = target: ZCCHC11 (UniProt Q5TAX3)
In short: as §1

[15] = target: MRPS28 (UniProt Q9Y2Q9)
In short: as §1

[16] = target: T4, CDKN2AIP (UniProt Q9NXV6)
T4 sequence: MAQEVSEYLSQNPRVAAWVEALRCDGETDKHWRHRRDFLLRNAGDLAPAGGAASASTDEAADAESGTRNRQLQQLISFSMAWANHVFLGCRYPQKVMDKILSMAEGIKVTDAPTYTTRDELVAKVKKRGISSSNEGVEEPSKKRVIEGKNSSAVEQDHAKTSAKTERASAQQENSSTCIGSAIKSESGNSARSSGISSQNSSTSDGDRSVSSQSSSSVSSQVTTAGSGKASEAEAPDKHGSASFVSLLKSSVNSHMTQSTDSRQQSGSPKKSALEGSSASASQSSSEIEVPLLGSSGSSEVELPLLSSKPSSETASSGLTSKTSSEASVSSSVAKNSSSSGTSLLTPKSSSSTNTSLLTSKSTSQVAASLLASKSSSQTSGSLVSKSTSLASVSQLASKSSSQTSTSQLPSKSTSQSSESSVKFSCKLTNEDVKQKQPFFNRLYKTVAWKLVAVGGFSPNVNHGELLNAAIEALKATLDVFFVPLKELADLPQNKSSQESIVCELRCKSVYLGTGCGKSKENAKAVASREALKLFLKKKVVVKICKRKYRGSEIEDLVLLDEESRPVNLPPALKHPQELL
In short: as §1

Chain of IGF2BP1 (Q9NZI8 whole entry): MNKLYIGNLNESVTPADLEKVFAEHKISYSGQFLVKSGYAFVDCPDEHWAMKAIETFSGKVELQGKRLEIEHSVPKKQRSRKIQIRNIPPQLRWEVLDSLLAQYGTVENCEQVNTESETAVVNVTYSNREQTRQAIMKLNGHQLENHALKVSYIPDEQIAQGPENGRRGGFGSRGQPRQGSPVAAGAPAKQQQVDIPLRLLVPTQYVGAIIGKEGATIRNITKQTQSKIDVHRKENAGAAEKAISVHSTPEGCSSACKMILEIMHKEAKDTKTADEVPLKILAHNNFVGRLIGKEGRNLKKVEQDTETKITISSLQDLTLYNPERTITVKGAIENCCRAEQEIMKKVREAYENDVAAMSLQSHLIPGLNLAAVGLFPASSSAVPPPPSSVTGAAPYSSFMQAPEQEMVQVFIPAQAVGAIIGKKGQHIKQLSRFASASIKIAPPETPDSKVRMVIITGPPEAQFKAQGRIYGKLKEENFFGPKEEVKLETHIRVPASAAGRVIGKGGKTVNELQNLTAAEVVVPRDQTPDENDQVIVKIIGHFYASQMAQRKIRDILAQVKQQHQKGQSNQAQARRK
Chain of SF3B6 (Q9Y3B4 whole entry): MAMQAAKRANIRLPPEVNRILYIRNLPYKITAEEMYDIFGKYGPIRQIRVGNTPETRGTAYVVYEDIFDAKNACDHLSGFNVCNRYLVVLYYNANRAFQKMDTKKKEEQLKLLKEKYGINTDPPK
Chain of ZCCHC11 (Q5TAX3 whole entry): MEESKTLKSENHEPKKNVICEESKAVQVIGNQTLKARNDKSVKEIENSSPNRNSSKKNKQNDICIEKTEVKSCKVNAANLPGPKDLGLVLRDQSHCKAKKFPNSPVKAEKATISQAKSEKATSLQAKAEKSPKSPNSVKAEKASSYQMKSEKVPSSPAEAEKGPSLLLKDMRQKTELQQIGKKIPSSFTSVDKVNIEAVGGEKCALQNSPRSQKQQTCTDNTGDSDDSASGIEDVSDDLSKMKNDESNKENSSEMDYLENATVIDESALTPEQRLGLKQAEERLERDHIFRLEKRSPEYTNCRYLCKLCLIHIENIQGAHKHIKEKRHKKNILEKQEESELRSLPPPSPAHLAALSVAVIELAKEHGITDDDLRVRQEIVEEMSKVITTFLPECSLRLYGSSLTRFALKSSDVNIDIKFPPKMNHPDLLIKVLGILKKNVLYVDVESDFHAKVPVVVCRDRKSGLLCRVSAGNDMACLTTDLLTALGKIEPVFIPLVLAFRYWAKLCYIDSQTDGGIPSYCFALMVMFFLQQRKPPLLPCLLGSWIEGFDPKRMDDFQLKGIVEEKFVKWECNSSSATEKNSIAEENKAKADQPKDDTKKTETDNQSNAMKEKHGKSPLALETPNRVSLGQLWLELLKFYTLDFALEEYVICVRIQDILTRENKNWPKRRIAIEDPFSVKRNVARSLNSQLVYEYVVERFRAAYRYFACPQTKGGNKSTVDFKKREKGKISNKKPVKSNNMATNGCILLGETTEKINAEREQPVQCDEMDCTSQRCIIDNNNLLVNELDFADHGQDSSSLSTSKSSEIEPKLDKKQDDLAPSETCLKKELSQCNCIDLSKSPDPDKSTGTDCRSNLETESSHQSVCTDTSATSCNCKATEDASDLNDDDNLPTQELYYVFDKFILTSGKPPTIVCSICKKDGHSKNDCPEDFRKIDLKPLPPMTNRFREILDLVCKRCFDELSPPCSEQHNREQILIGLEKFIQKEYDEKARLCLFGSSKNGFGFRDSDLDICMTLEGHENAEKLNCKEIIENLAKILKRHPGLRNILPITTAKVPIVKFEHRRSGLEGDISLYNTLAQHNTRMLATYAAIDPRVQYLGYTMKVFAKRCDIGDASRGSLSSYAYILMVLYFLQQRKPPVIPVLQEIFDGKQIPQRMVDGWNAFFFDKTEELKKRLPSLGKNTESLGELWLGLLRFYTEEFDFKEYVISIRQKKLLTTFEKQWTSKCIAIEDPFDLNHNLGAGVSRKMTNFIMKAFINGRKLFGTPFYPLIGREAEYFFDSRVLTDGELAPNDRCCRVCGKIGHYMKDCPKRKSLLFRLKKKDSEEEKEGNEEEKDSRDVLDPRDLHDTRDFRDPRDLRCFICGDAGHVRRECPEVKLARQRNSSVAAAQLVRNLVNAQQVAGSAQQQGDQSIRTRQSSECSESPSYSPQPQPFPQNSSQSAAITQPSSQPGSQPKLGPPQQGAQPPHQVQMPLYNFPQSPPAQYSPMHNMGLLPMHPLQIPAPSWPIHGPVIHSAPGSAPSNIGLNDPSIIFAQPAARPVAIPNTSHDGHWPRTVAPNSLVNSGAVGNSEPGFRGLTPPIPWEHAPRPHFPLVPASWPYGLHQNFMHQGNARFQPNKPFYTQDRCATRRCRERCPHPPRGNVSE
Chain of IGF2BP2 (Q9Y6M1 whole entry): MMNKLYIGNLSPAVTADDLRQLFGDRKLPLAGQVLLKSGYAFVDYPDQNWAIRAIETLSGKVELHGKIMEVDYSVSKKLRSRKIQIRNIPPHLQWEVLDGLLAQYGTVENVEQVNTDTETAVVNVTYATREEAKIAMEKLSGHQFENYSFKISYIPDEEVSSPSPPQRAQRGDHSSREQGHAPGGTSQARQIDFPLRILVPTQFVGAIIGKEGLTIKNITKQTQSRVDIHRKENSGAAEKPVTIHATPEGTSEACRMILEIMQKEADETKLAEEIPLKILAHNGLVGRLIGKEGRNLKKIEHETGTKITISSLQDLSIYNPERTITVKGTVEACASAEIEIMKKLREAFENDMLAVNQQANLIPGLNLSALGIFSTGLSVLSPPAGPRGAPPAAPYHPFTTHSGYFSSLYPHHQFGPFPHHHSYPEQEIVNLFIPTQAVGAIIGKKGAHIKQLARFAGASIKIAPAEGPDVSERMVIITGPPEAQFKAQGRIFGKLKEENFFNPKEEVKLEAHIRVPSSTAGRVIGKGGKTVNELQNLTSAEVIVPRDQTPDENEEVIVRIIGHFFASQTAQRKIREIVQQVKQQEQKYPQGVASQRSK

CUGUCCU
Kd [1]: 1240 nM | Kd [2]: 924 nM | Kd [3]: 57.2 nM | Kd [4]: 78.4 nM | Kd [5]: 109 nM | Kd [6]: 187 nM

AAUAAA
Kd [7]: 0.305 nM | Kd [8]: 2270 nM | Kd [9]: 11.2 nM | Kd [10]: 766 nM | Kd [11]: 3960 nM

UAUUUAU
Kd [12]: 37.4 nM | Kd [13]: 12.4 nM | Kd [14]: 91.8 nM | Kd [15]: 15.9 nM | Kd [16]: 368 nM
